The target in one experiment is T1, MitF, reductase (Streptomyces lavendulae NRRL 2564, UniProt Q9X5R6 1-257).
T1 construct: MitF, reductase of the mitomycin C biosynthetic gene cluster, Streptomyces lavendulae NRRL 2564; source: E. coli BL21(DE3), pET30a (pJQK414), purified (Ni-NTA, FPLC); not shown: His6, N-terminal, kept
T1 sequence (looked up): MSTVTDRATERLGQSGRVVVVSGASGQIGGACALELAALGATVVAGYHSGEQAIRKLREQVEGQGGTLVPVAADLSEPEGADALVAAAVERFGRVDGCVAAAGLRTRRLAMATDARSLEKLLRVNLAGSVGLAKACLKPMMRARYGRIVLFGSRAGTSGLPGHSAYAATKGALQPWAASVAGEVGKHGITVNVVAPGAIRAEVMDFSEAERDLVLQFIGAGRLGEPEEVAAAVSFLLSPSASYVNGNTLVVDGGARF
Briefly: SPR; Biacore 8K, 25 °C; MitB (5000 RU) or MitF (3000 RU) coupled to a CM5 chip in 10 mM NaAc pH 4.0; holo-MmcB flowed over (2.7-43.2 µM on MitB, 0.7-21.6 µM on MitF). The note with it: both partners purified. (Surface plasmon resonance follows binding to a sensor surface in real time, without labels.)

In experiment [1] the target is MitB (intact, updated open reading frame), glycosyltransferase (Streptomyces lavendulae NRRL 2564) (UniProt Q9WW09). The description is as above.

As a reminder, the stoichiometry N is a count of units in the complex or per binding partner. As a reminder, the Kd is the equilibrium constant for the complex coming apart. A lower Kd goes with higher affinity. A word on the koff: it is the first-order rate constant of dissociation. High values mean fast dissociation, low ones slow dissociation. In general, kon refers to a measure of how fast the partners come together.

B1: holo-MmcB (acyl carrier protein MmcB, tag-free) (natural protein, Streptomyces lavendulae NRRL 2564, UniProt Q9X5S0 1-93, looked up)
chain: METLTTDKIKDRLRKVLVDSLELSLDPSAVPDEGLVEKLGLDSINTIEFLIWVESEFGIEIADEDLSIKLIDSLDLLAGYVSERVNGVTAPAE
modifications: 4'-phosphopantetheine at Ser43 (holo-form)
notes: MmcB, acyl carrier protein of the mitomycin C biosynthetic gene cluster, Streptomyces lavendulae NRRL 2564; 93 amino acid residues; gene synthesised with codons optimised for E. coli; The methods name the holo form for both the pull-down and SPR; also called ACP; tag-free MmcB; not shown: His6, C-terminal, cleaved
On to B1, for which the “stoichiometry N” value with MitF, reductase was determined as 1. Further, in experiment [1], the Kd came to 578 nM, the koff was 0.113 s⁻¹, the kon stood at 195000 M⁻¹ s⁻¹ and the stoichiometry N came out at 1.
